Laboratory results as given in patent publication US20020164620.

Columns and labels:
[1] = target: T1, SCC1-myc (in vitro translated human SCC1 with myc tag) (UniProt O60216)
T1 sequence: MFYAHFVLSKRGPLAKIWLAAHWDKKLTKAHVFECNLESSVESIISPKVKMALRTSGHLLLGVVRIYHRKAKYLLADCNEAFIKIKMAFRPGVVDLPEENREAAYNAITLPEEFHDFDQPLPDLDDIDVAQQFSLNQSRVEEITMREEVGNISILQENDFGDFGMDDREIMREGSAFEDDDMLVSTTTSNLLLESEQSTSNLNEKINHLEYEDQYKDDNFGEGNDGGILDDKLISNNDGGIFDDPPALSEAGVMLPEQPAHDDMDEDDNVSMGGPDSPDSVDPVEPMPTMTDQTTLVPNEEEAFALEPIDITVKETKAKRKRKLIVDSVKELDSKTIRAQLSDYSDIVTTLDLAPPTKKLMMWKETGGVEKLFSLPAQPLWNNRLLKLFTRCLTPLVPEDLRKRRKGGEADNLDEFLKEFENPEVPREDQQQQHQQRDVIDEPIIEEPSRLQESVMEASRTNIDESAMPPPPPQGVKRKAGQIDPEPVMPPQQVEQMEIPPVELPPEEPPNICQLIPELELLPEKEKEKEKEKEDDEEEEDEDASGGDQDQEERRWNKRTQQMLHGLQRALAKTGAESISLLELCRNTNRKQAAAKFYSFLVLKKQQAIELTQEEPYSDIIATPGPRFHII

[2] = test system: T2, Bio-SVEQGR-amk
T2 sequence: SVEQGR

[3] = target: T3, destruction box deleted form of securin (UniProt O95997)
T3 sequence: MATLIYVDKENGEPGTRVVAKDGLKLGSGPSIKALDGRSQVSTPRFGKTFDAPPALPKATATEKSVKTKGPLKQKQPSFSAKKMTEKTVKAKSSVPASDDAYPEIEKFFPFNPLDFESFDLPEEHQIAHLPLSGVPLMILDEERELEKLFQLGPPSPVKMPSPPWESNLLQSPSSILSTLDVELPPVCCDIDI

[4] = test system: T4, Bio-SVEQGR-cmk
T4 sequence: SVEQGR

[5] = test system: separase-myc (in vitro translated separase construct with one myc epitope at its C-terminus)
[6] = target: T5, recombinant human securin, wildtype, expressed in E. coli (UniProt O95997)
T5 sequence: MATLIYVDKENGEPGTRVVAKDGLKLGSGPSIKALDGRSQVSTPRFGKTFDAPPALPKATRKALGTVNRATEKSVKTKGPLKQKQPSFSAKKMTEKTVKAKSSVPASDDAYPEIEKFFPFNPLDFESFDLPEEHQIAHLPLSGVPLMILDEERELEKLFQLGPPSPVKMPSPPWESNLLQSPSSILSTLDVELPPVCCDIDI

Substance | cleavage of SCC1-myc (anti-myc immunoblot, FIG. 6B) [1] | cleavage of SCC1-myc (anti-myc immunoblot) [1] | cleavage of SCC1-myc by separase (anti-myc immunoblot) [2] | cleavage of SCC1-myc by separase (anti-myc immunoblot, FIG. 4C lane 2i) [2] | cleavage of SCC1-myc by separase (anti-myc immunoblot, FIG. 4C lane 3i) [2] | cleavage of SCC1-myc by separase (anti-myc immunoblot) [3] | cleavage of SCC1-myc by separase (anti-myc immunoblot) [4] | cleavage of in vitro translated separase-myc (anti-myc immunoblot, FIG. 5) [5] | cleavage of SCC1-myc by separase (anti-myc immunoblot) [6]
N-terminally FLAG-tagged full length human separase expressed in HeLa cells, anti-FLAG immunoprecipitate activated in mitotic Xenopus egg extract | ectopically expressed separase is able to cleave human SCC1 |  |  |  |  |  |  |  | 
cleaved form of human separase (separase immunoprecipitate from nocodazole-arrested HeLa cells, activated in mitotic Xenopus egg extract) |  | it is the cleaved form of separase that is the active protease which cleaves SCC1, unless it is inhibited by the rebinding of securin | both inhibitors are able to block the ability of separase to cleave SCC1 | separase was unable to cleave SCC1 | This treatment inhibited SCC1 cleavage by separase | Identical results were obtained with two different forms of securin, the wildtype protein (WT-securin) and a form that can not be destroyed by ubiquitin-dependent proteolysis (DB-securin | both inhibitors are able to block the ability of separase to cleave SCC1 | in vitro translated separase was cleaved when it was incubated with active separase obtained by incubation of separase immunoprecipitates in mitotic Xenopus egg extracts | no cleavage of SCC1 was detected
